Test results published in the RNAGym collection of RNA variant scans (doi:10.7554/elife.80360).

B1: HDV Ribozyme (parent)
chain: GGCCGGCAUGGUCCCAGCCUCCUCGCUGGCGCCGGCUGGGCAACAUUCCGAGGGGACCGUCCCCUCGGUAAUGGCGAAUGGGACCCA

Variants of: B1
Test: self-cleavage, relative activity (ratio to wild type); higher = more cleavage; co-transcriptional

Point of comparison: GGCCGGCAUGGUCCCAGCCUCCUCGCUGGCGCCGGAUGGGCAACAUUCCGAGGGGACCGUCCCCUCGGAAAUGGCGAAUGGGACCCA [C36A U69A], self-cleavage 0.0755. Against it:
- GGCCGGCAUGGUCCCAGCCUCCUCGCUGGCGCCGGAUGGGCAACAUUCCGAGGGGACCGUCCCCUCGGUAAUGGCGAAUGCGACCCA [C36A G81C] — higher, 0.102
- GGCCGGCAUGGUCCCAGCCUCCUCGCUGGCGCCGGAUGGGCAACAUUCCGAGGGGACCGUCCCCUCGGCAAUGGCGAAUGGGACCCA [C36A U69C] — lower, 0.0426
- GGCCGGCAUGGUCCCAGCCUCCUCGCUGGCGCCGGGUGGGCAACAUUCCGAGGGGAGCGUCCCCUCGGUAAUGGCGAAUGGGACCCA [C36G C57G] — higher, 0.162
- GGCCGGCAUGGUCCCAGCCUCCUCGCUGGCGCCGGGUGGGCAACAUUCCGAGGGGAACGUCCCCUCGGUAAUGGCGAAUGGGACCCA [C36G C57A] — higher, 0.177
- GGCCGGCAUGGUCCCAGCCUCCUCGCUGGCGCCGGGUGGGCAACAUUCCGAGGGGACCGUCGCCUCGGUAAUGGCGAAUGGGACCCA [C36G C62G] — higher, 0.142
- GGCCGGCAUGGUCCCAGCCUCCUCGCUGGCGCCGGAUGGGCAACAUUCCGAGGCGACCGUCCCCUCGGUAAUGGCGAAUGGGACCCA [C36A G54C] — higher, 0.241
- GGCCGGCAUGGUCCCAGCCUCCUCGCUGGCGCCGGGUGGGCAAGAUUCCGAGGGGACCGUCCCCUCGGUAAUGGCGAAUGGGACCCA [C36G C44G] — lower, 0
- GGCCGGCAUGGUCCCAGCCUCCUCGCUGGCGCCGGAUGGGCAACAUUCCGAGAGGACCGUCCCCUCGGUAAUGGCGAAUGGGACCCA [C36A G53A] — higher, 0.218
- GGCCGGCAUGGUCCCAGCCUCCUCGCUGGCGCCGGAUGGGCAACAUUCCGAGCGGACCGUCCCCUCGGUAAUGGCGAAUGGGACCCA [C36A G53C] — lower, 0.0277
- GGCCGGCAUGGUCCCAGCCUCCUCGCUGGCGCCGGAUGGGCAACAUUCCGAGUGGACCGUCCCCUCGGUAAUGGCGAAUGGGACCCA [C36A G53U] — higher, 0.19
- GGCCGGCAUGGUCCCAGCCUCCUCGCUGGCGCCGGGUGGGCAACAUUCCGUGGGGACCGUCCCCUCGGUAAUGGCGAAUGGGACCCA [C36G A51U] — lower, 0.0519
- GGCCGGCAUGGUCCCAGCCUCCUCGCUGGCGCCGGGUGGGCAACAUUCCGCGGGGACCGUCCCCUCGGUAAUGGCGAAUGGGACCCA [C36G A51C] — lower, 0.0665
- GGCCGGCAUGGUCCCAGCCUCCUCGCUGGCGCCGGGUGGGCAACAUUACGAGGGGACCGUCCCCUCGGUAAUGGCGAAUGGGACCCA [C36G C48A] — higher, 0.272
- GGCCGGCAUGGUCCCAGCCUCCUCGCUGGCGCCGGGUGGGCAACAUUUCGAGGGGACCGUCCCCUCGGUAAUGGCGAAUGGGACCCA [C36G C48U] — higher, 0.231
- GGCCGGCAUGGUCCCAGCCUCCUCGCUGGCGCCGGAUGGGCAACAUUCCGAGGGGACCGACCCCUCGGUAAUGGCGAAUGGGACCCA [C36A U60A] — higher, 0.198
- GGCCGGCAUGGUCCCAGCCUCCUCGCUGGCGCCGGAUGGGCAACAUUCCGAGGGGACCGCCCCCUCGGUAAUGGCGAAUGGGACCCA [C36A U60C] — higher, 0.166
- GGCCGGCAUGGUCCCAGCCUCCUCGCUGGCGCCGGGUGGGCCACAUUCCGAGGGGACCGUCCCCUCGGUAAUGGCGAAUGGGACCCA [C36G A42C] — higher, 0.0811
- GGCCGGCAUGGUCCCAGCCUCCUCGCUGGCGCCGGGUGGGCGACAUUCCGAGGGGACCGUCCCCUCGGUAAUGGCGAAUGGGACCCA [C36G A42G] — higher, 0.147
- GGCCGGCAUGGUCCCAGCCUCCUCGCUGGCGCCGGGUGGGCUACAUUCCGAGGGGACCGUCCCCUCGGUAAUGGCGAAUGGGACCCA [C36G A42U] — higher, 0.113
- GGCCGGCAUGGUCCCAGCCUCCUCGCUGGCGCCGGAUGGGCAACAUUCCGAGGGGACCGUCCCCUCGGUAAUGCCGAAUGGGACCCA [C36A G74C] — higher, 0.0997
- GGCCGGCAUGGUCCCAGCCUCCUCGCUGGCGCCGGAUGGGCAACAUUCCGAGGGGACCGUCCCCUCGGUAAUGACGAAUGGGACCCA [C36A G74A] — lower, 0
- GGCCGGCAUGGUCCCAGCCUCCUCGCUGGCGCCGGAUGGGCAACAUUCCGAGGGGACCGUCCCCUCGGUAAUGUCGAAUGGGACCCA [C36A G74U] — higher, 0.14
- GGCCGGCAUGGUCCCAGCCUCCUCGCUGGCGCCGGGUGGGCAACAUUCCGAGGGGACCGUCCCCUCGGUAAUGGCGAAUGGGACCCA [C36G] — higher, 0.13
- GGCCGGCAUGGUCCCAGCCUCCUCGCUGGCGCCGGGUGGGCAACAUUCCGAGGGGACGGUCCCCUCGGUAAUGGCGAAUGGGACCCA [C36G C58G] — lower, 0.0594
- GGCCGGCAUGGUCCCAGCCUCCUCGCUGGCGCCGGGUGGGCAACAUUCCGAGGGGACUGUCCCCUCGGUAAUGGCGAAUGGGACCCA [C36G C58U] — higher, 0.128
- GGCCGGCAUGGUCCCAGCCUCCUCGCUGGCGCCGGGUGGGCAACAUUCCGAGGGGACAGUCCCCUCGGUAAUGGCGAAUGGGACCCA [C36G C58A] — higher, 0.201
- GGCCGGCAUGGUCCCAGCCUCCUCGCUGGCGCCGGGUGGGCAACAUUCCGAGGGGACCGUCCCCUCGGUAAUGGCGAAUGGGACCCG [C36G A87G] — higher, 0.138
- GGCCGGCAUGGUCCCAGCCUCCUCGCUGGCGCCGGGUGGGCAACAUUCCGAGGGGACCGUCCCCUCGGUAAUGGCGAAUGGGACCCU [C36G A87U] — higher, 0.153
- GGCCGGCAUGGUCCCAGCCUCCUCGCUGGCGCCGGGUGGGCAACAUUCCGAGGGGACCGUCCCCUCGGUAAUGGCGGAUGGGACCCA [C36G A77G] — higher, 0.0791
- GGCCGGCAUGGUCCCAGCCUCCUCGCUGGCGCCGGAUGGGCAACAUUCCGAGGGGACCGUCCCCUCGGUAAUGGCGAAGGGGACCCA [C36A U79G] — higher, 0.175
- GGCCGGCAUGGUCCCAGCCUCCUCGCUGGCGCCGGAUGGGCAACAUUCCGAGGGGACCGUCCCCUCGGUAAUGGCGAAAGGGACCCA [C36A U79A] — lower, 0.0615
